Reference: IntAct's records for PubMed 29340707

B1: Serine/threonine-protein kinase VRK1 (Homo sapiens), Q99986 (parent)
chain: MPRVKAAQAGRQSSAKRHLAEQFAVGEIITDMAKKEWKVGLPIGQGGFGCIYLADMNSSESVGSDAPCVVKVEPSDNGPLFTELKFYQRAAKPEQIQKWIRTRKLKYLGVPKYWGSGLHDKNGKSYRFMIMDRFGSDLQKIYEANAKRFSRKTVLQLSLRILDILEYIHEHEYVHGDIKASNLLLNYKNPDQVYLVDYGLAYRYCPEGVHKEYKEDPKRCHDGTIEFTSIDAHNGVAPSRRGDLEILGYCMIQWLTGHLPWEDNLKDPKYVRDSKIRYRENIASLMDKCFPEKNKPGEIAKYMETVKLLDYTEKPLYENLRDILLQGLKAIGSKDDGKLDLSVVENGGLKAKTITKKRKKEIEESKEPGVEDTEWSNTQTEEAIQTRSRTRKRVQK

Variants of: B1
Settings: with aurkb_human AURKB

| Variant | effect of a mutation on the interaction |
| --- | --- |
| K179E | increasing interaction strength |

Variants of: B1
Settings: with aurkb_human AURKB
Remark: another data set of the same source

| Variant | effect of a mutation on the interaction |
| --- | --- |
| K179E | disrupting interaction strength |
